Experimental data published in US20120178909A1 (MorphoSys, published 2012).
Changes are numbered by the printed parent chain.

B1: AbD05320 (Fab, V domains shown)
VH: QVQLVQSGAEVKKPGESLKISCKGSGYSFTNYWISWVRQAPGKGLEWMGIIDPGDSDTNYSPSFQGQVTISADKSISTAYLQWSSLKASDTAMYYCARVNYYNFDYWGQGTLVTVSS
VL: DIVLTQSPATLSLSPGERATLSCRASQSVTSNLAWYQQKPGQAPRLLIYGNVSRRATGVPARFSGSGSGTDFTLTISSLEPEDFATYYCQQYGDYPATFGQGTKVEIKR
B2: AbD05321 (Fab, V domains shown)
VH: QVQLVQSGAEVKKPGSSVKVSCKASGGTFSSHAISWVRQAPGQGLEWMGGIIPIFGMANYAQKFQGRVTITADESTSTAYMELSSLRSEDTAVYYCARYYWKPVLFDFDVWGQGTLVTVSS
VL: DIALTQPASVSGSPGQSITISCTGTSSDIGGNNYVSWYQQHPGKAPKVMIYEVSKRPSGVSNRFSGSKSGNTASLTISGLQAEDEADYYCSSYTMTIFVFGGGTKLTVLG
B3: AbD05322 (Fab, V domains shown)
VH: QVQLVESGGGLVQPGGSLRLSCAASGFTFSNFWMSWVRQAPGKGLEWVSAISYSSSSTYFADSVKGRFTISRDNSKNTLYLQMNSLRAEDTAVYYCARAYRSYFDIWGQGTLVTVSS
VL: DIQMTQSPSSLSASVGDRVTITCRASQSISNWLNWYQQKPGKAPKLLIYNASILQSGVPSRFSGSGSGTDFTLTISSLQPEDFAVYYCQQNYGIPITFGQGTKVEIKR
B4: AbD05444 (Fab, V domains shown)
VH: QVQLVESGGGLVQPGGSLRLSCAASGFTFSSYWLNWVRQAPGKGLEWVSGISSSSSSTFYADGVKGRFTISRDNSKNTLYLQMNSLRAEDTAVYYCARHSYFDYWGQGTLVTVSS
VL: B3 VL with S30V, N31T, W32Y, N50A, I53N, N91L, G93S, I94H, I96P
B5: AbD05445 (Fab, V domains shown)
VH: QVQLVESGGGLVQPGGSLRLSCAASGFTFSNNAMTWVRQAPGKGLEWVSLISYSGSSTYYADSVKGRFTISRDNSKNTLYLQMNSLRAEDTAVYYCARLGGNPLGPFDHWGQGTLVTVSS
VL: DIALTQPASVSGAPGQRVTISCTGTSSDIGGYSYVSWYQQHPGKAPKLMIYGVTKRPSGVSNRFSGSKSGNTASLTISGLQAEDEADYYCQSWATHPIRVFGGGTKLTVLG
B6: AbD05446 (Fab, V domains shown)
VH: QVQLVESGGGLVQPGGSLRLSCAASGFTFNSNSMSWVRQAPGKGLEWVSGISGIGSNTNYADSVKGRFTISRDNSKNTLYLQMNSLRAEDTAVYYCARVHYYSGVVFDFWGQGTLVTVSS
VL: DIELTQPPSVSVAPGQTARISCSGDNLRTQYASWYQQKPGQAPVLVIYNKNKRPSGIPERFSGSNSGNTATLTISGTQAEDEADYYCAAWDSGSIVFGGGTKLTVLG

biological target: T1, DV2 NS2B-NS3pro construct, wild type (strain 16681) (WNV strain of the DV serotype 2 (DV2; …, UniProt P29990 1393-1440; P29990 1476-1687); test: ELISA on coated construct
T1 construct: range 1393-1440;range 1476-1687

Row | Binder | binding result
1 | B1 | no binding (tested: 2 µg/ml antibody)
2 | B2 | no binding (tested: 2 µg/ml antibody)
3 | B3 | no binding (tested: 2 µg/ml antibody)
4 | B4 | no binding (tested: 2 µg/ml antibody)
5 | B5 | no binding (tested: 2 µg/ml antibody)
6 | B6 | no binding (tested: 2 µg/ml antibody)
